Where no end group is shown, it is not given here.
Experiments:
[1] = biological target: T1, human cadherin-17 (CDH17), endogenously expressed on human cancer cell lines (LS513, SNU-C1, PaTu8988s, … (human, UniProt Q12864 23-832)); experiment: flow cytometry (iQue) on LS513 cells, 1 µg Ab
T1 construct: also called LS513 (Colon, CDH17+); HPAF2

[2] = biological target: T1, human cadherin-17 (CDH17), endogenously …; experiment: flow cytometry (iQue) on SNUC1 cells, 1 µg Ab
[3] = biological target: T1, human cadherin-17 (CDH17), endogenously …; experiment: flow cytometry (iQue) on PATU8988S cells, 1 µg Ab
[4] = biological target: T2, human CDH17-mGFP fusion protein overexpressed on HEK293T cells (clone G11) (human, UniProt Q12864 23-832); experiment: flow cytometry on HEK293T human CDH17mGFP G11, 20 µg/ml
T2 construct: also called HEK293T CDH17mGFP Clone G11; HEK293T Human CDH17mGFP G11; not shown: mGFP fluorescent protein fused to CDH17

[5] = biological target: T3, rat CDH17 fused to moxGFP, overexpressed on HEK293T cells (rat, UniProt P55281 22-827); experiment: flow cytometry (BD C6) on HEK293T Rat CDH17 moxGFP cells
T3 construct: whole, on cells; also called HEK293T Rat CDH17mGFP mass pop; rat CDH17-moxGFP
T3 sequence (P55281 22-827): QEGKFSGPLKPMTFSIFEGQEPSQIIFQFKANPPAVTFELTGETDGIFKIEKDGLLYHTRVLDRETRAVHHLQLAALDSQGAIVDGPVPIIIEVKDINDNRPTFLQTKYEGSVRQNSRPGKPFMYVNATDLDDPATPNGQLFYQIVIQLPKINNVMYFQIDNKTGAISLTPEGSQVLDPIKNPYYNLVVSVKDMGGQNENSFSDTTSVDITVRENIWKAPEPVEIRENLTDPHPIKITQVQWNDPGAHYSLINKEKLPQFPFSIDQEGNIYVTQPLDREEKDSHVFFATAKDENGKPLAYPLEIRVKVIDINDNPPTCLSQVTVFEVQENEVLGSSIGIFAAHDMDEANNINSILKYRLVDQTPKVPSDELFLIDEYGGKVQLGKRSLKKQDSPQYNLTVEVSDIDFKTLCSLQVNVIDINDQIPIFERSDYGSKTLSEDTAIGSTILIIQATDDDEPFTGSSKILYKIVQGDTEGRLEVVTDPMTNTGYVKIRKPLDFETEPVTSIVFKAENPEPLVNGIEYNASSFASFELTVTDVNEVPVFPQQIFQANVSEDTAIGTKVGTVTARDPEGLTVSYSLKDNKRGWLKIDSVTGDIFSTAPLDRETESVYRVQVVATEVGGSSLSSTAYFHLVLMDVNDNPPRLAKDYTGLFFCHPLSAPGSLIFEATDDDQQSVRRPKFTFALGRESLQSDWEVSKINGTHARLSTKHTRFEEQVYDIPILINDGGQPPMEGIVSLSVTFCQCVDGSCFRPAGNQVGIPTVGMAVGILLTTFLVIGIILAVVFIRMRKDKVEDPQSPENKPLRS
Procedure: To determine relative antigen binding strengths of the humanized antibodies, FACS assays were carried out as essentially described in Example 1. […] Using a BD Biosciences Accuri™ C6 Flow Cytometer (San Jose, CA), antibody binding based on Alexa Fluor® 647 fluorescence was measured in the FL4-H channel and fusion protein overexpression based on GFP fluorescence was measured in the FL1-H channel.

[6] = biological target: T4, biotinylated 15-mer peptide 18 of the CDH17 ECD peptide scan (human, also: biotin label, position not given here); experiment: titration ELISA on biotinylated peptide captured on streptavidin plates
T4 peptide: THNLQVAALDANGII
Procedure: (§1) For the ELISA, 1 μl of each biotinylated peptide plus 99 μl of peptide coating buffer (40% DMSO and 0.05% Tween20 in PBS) was added to a streptavidin-coated microtiter plate well. The plate was incubated overnight at 4° C. without shaking. The plate was then washed 4 times with 300 μl washing buffer (PBS with 0.05% Tween20). 200 μl blocking buffer (PBS with 400 μM biotin and 20% sucrose) was added to each well and the plate incubated for 30 min at room temperature without shaking. After 3 times washing with washing buffer, 300 μl of SuperBlock T20 (TBS) Blocking Buffer (Thermo Scientific, #37536) was applied per well and incubated at room temperature for 1 hour. […]

[7] = biological target: T5, biotinylated 15-mer peptide 19 of the CDH17 ECD peptide scan (human, also: biotin label, position not given here); experiment: as above
T5 peptide: QVAALDANGIIVEGP
Procedure: as §1

[8] = biological target: T6, biotinylated 15-mer peptide 20 of the CDH17 ECD peptide scan (human, also: biotin label, position not given here); experiment: as above
T6 peptide: LDANGIIVEGPVPIT
Procedure: as §1

[9] = biological target: T2, human CDH17-mGFP fusion protein …; experiment: flow cytometry (iQue) on HEK293T CDH17 mGFP clone G11 (human), 0.2 µg Ab
[10] = biological target: T7, Peptide 7 (also: biotin label, position not given here); experiment: titration ELISA, biotinylated peptide on streptavidin-coated plate
T7 construct: LDANGII with the seventh residue I changed to A; also called LDANGIA
T7 peptide: LDANGIA

[11] = biological target: T8, Peptide 1 (also: biotin label, position not given here); experiment: as above
T8 construct: also called Original 7-mer peptide; LDANGII
T8 peptide: LDANGII

[12] = biological target: T9, Peptide 2 (also: biotin label, position not given here); experiment: as above
T9 construct: LDANGII with the first residue L changed to A; also called ADANGII
T9 peptide: ADANGII

[13] = biological target: T10, Peptide 3 (also: biotin label, position not given here); experiment: as above
T10 construct: LDANGII with the second residue D changed to A; also called LAANGII
T10 peptide: LAANGII

[14] = biological target: T11, Peptide 8 (also: biotin label, position not given here); experiment: as above
T11 construct: LDANGII with the third residue A changed to G; also called LDGNGII
T11 peptide: LDGNGII

[15] = biological target: T12, Peptide 5 (also: biotin label, position not given here); experiment: as above
T12 construct: LDANGII with the fifth residue G changed to A; also called LDANAII
T12 peptide: LDANAII

[16] = biological target: T13, Peptide 6 (also: biotin label, position not given here); experiment: as above
T13 construct: LDANGII with the sixth residue I changed to A; also called LDANGAI
T13 peptide: LDANGAI

B1: humanized anti-CDH17 antibody 07-0663-h7 (antibody, human IgG1, kappa, V domains shown)
VH: QVQLVQSGAEVKKPGSSVKISCKVSGYTFTDHTIHWMRQAPGQGLEWIGYIFPRDDIVVYAQKFQGRATLTADKSTSTAYMELSSLRSEDTAVYYCARPPYYYSRNFYFDYWGQGTTLTVSS
VL: DIQMTQSPSSLSASVGDRVTITCRVSSIISSSKLHWYQQKPGKAPKPLIYGTSTLASGVPSRFSGSGSGTDYTLTISSLQPEDFATYYCQQWSNYPFTFGQGTKLEIKR
notes: Human IgG1 / kappa
Antibody Binding Activity by Flow iQue [1]: 2.3e+06 | Antibody Binding Activity by Flow iQue [2]: 76100 | Antibody Binding Activity by Flow iQue [3]: 101000 | Cross Reactivity by Flow [4]: 57600 | binding result [5]: no binding (tested: 1 µg) | binding result [6]: binds | binding result [7]: binds | binding result [8]: binds | Antibody Binding Activity by Flow iQue [9]: 57600 | ELISA reading at 1500 ng/ml antibody, lower of two rows [10]: 2.74 | ELISA reading at 1500 ng/ml antibody, upper of two rows [10]: 2.8 | ELISA reading at 1500 ng/ml antibody, lower of two rows [11]: 2.76 | ELISA reading at 1500 ng/ml antibody, upper of two rows [11]: 3.1 | ELISA reading at 1500 ng/ml antibody, lower of two rows [12]: 2.71 | ELISA reading at 1500 ng/ml antibody, upper of two rows [12]: 2.65 | ELISA reading at 1500 ng/ml antibody, lower of two rows [13]: 0.0369 | ELISA reading at 1500 ng/ml antibody, upper of two rows [13]: 0.0377 | binding result [13]: no binding (tested: 1500 ng/ml) | ELISA reading at 1500 ng/ml antibody, lower of two rows [14]: 2.14 | ELISA reading at 1500 ng/ml antibody, upper of two rows [14]: 2.1 | ELISA reading at 1500 ng/ml antibody, lower of two rows [15]: 0.0383 | ELISA reading at 1500 ng/ml antibody, upper of two rows [15]: 0.0394 | binding result [15]: no binding (tested: 1500 ng/ml) | ELISA reading at 1500 ng/ml antibody, lower of two rows [16]: 0.0357 | ELISA reading at 1500 ng/ml antibody, upper of two rows [16]: 0.0371 | binding result [16]: no binding (tested: 1500 ng/ml)

— patent US20250051437A1 (University of California, published 2025)
